Reference: patent publication US6869778 (Scripps Research, dated 2005)

B1: t-PA/R275E, single-chain form (enzyme)
chain: SYQVICRDEKTQMIYQQHQSWLRPVLRSNRVEYCWCNSGRAQCHSVPVKSCSEPRCFNGGTCQQALYFSDFVCQCPEGFAGKCCEIDTRATCYEDQGISYRGTWSTAESGAECTNWNSSALAQKPYSGRRPDAIRLGLGNHNYCRNPDRDSKPWCYVFKAGKYSSEFCSTPACSEGNSDCYFGNGSAYRGTHSLTESGASCLPWNSMILIGKVYTAQNPSAQALGLGKHNYCRNPDGDAKPWCHVLKNRRLTWEYCDVPSCSTCGLRQYSQPQFEIKGGLFADIASHPWQAAIFAKHRRSPGERFLCGGILISSCWILSAAHCFQERFPPHHLTVILGRTYRVVPGEEEQKFEVEKYIVHKEFDDDTYDNDIALLQLKSDSSRCAQESSVVRTVCLPPADLQLPDWTECELSGYGKHEALSPFYSERLKEAHVRLYPSSRCTSQHLLNRTVTDNMLCAGDTRSGGPQANLHDACQGDSGGPLVCLNDGRMTLVGIISWGLGCGQKDVPGVYTKVTNYLDWIRDNMRP
notes: Noncleavable single-chain enzyme, secreted from COS-1 cells only as a single chain
B2: t-PA/R275E,H417D, single-chain form (enzyme)
chain: SYQVICRDEKTQMIYQQHQSWLRPVLRSNRVEYCWCNSGRAQCHSVPVKSCSEPRCFNGGTCQQALYFSDFVCQCPEGFAGKCCEIDTRATCYEDQGISYRGTWSTAESGAECTNWNSSALAQKPYSGRRPDAIRLGLGNHNYCRNPDRDSKPWCYVFKAGKYSSEFCSTPACSEGNSDCYFGNGSAYRGTHSLTESGASCLPWNSMILIGKVYTAQNPSAQALGLGKHNYCRNPDGDAKPWCHVLKNRRLTWEYCDVPSCSTCGLRQYSQPQFEIKGGLFADIASHPWQAAIFAKHRRSPGERFLCGGILISSCWILSAAHCFQERFPPHHLTVILGRTYRVVPGEEEQKFEVEKYIVHKEFDDDTYDNDIALLQLKSDSSRCAQESSVVRTVCLPPADLQLPDWTECELSGYGKDEALSPFYSERLKEAHVRLYPSSRCTSQHLLNRTVTDNMLCAGDTRSGGPQANLHDACQGDSGGPLVCLNDGRMTLVGIISWGLGCGQKDVPGVYTKVTNYLDWIRDNMRP
B3: t-PA/R275E,H417E, single-chain form (enzyme)
chain: SYQVICRDEKTQMIYQQHQSWLRPVLRSNRVEYCWCNSGRAQCHSVPVKSCSEPRCFNGGTCQQALYFSDFVCQCPEGFAGKCCEIDTRATCYEDQGISYRGTWSTAESGAECTNWNSSALAQKPYSGRRPDAIRLGLGNHNYCRNPDRDSKPWCYVFKAGKYSSEFCSTPACSEGNSDCYFGNGSAYRGTHSLTESGASCLPWNSMILIGKVYTAQNPSAQALGLGKHNYCRNPDGDAKPWCHVLKNRRLTWEYCDVPSCSTCGLRQYSQPQFEIKGGLFADIASHPWQAAIFAKHRRSPGERFLCGGILISSCWILSAAHCFQERFPPHHLTVILGRTYRVVPGEEEQKFEVEKYIVHKEFDDDTYDNDIALLQLKSDSSRCAQESSVVRTVCLPPADLQLPDWTECELSGYGKEEALSPFYSERLKEAHVRLYPSSRCTSQHLLNRTVTDNMLCAGDTRSGGPQANLHDACQGDSGGPLVCLNDGRMTLVGIISWGLGCGQKDVPGVYTKVTNYLDWIRDNMRP

target: plasminogen activator inhibitor, type 1 (PAI-1) (UniProt P05121 24-402); experiment: enzyme preincubated with PAI-1 under pseudo-first order conditions at 23 degrees Celsius; residual activity read in indirect chromogenic assay
Description: Second order rate constants for the inhibition of wild type human t-PA and variant t-PA were measured under pseudo-first order conditions as previously described. Briefly, enzyme and inhibitor were preincubated at 23 degrees Celsius for periods of time varying from 0–30 minutes. Following preincubation, the mixtures were diluted, and the residual enzymatic activity was measured in a standard indirect chromogenic assay. For each enzyme, the concentrations of enzyme and inhibitor and the times of preincubation were chosen to yield several data points for which the residual enzymatic activity varied between 20% and 80% of the initial activity. Data were analyzed by plotting the natural logarithm of the ratio (residual activity/initial activity) versus time of preincubation and measuring the resulting slopes. Division of this slope by –[I] yielded the second order rate constants shown.

Chain of plasminogen activator inhibitor, type 1 (PAI-1) (P05121 24-402 limits assumed): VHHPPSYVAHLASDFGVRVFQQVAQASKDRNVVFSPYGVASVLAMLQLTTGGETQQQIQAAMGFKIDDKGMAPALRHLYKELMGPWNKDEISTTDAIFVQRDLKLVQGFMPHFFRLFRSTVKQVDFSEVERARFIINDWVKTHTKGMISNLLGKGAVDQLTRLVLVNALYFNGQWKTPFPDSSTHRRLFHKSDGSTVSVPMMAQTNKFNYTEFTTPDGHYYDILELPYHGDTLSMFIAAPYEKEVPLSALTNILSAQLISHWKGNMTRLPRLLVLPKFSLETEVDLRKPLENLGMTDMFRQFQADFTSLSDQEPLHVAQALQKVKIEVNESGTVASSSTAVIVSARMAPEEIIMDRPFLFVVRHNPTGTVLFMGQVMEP

| Binder | Second Order Rate Constant for inhibition by PAI-1 |
| --- | --- |
| B1 | 1.8e+06 M⁻¹ s⁻¹ |
| B2 | 150000 M⁻¹ s⁻¹ |
| B3 | 210000 M⁻¹ s⁻¹ |
